For data set [1], the target named is RPA (RPA1/RPA2/RPA3 heterotrimer) (human, UniProt P27694;P15927;P35244 1-616;1-270;1-121). The data set is described as follows: mass photometry; 4:1 RPA:DNA; a single RPA per DNA; EMSA: 50 mM Tris pH 8, 1 mM EDTA, 0.2 mg/ml BSA, 1 mM DTT, 5% sucrose, room temperature, 5 nM DNA; FRET: 20 mM HEPES pH 7.5, 150 mM KCl, 5 mM MgCl2, 5 mM CaCl2, 1 mM DTT, ionic strength 200 mM with KCl, 23 C. Particulars: protein: recombinant; copies: 1;1;1.

For data set [2], the target named is APE1Dead (catalytically dead APE1) (human, UniProt P27695 1-318, D210N;E96Q). The data set is described as follows: competition; FRET; DNA pre-saturated with 75 nM Cy5-RPA; APE1Dead completely exchanges for RPA; EMSA: 50 mM Tris pH 8, 1 mM EDTA, 0.2 mg/ml BSA, 1 mM DTT, 5% sucrose, room temperature, 5 nM DNA; FRET: 20 mM HEPES pH 7.5, 150 mM KCl, 5 mM MgCl2, 5 mM CaCl2, 1 mM DTT, ionic strength 200 mM with KCl, 23 C. The conditions noted are these: protein: recombinant; label: Cy3 at primer 3' end; 3' recessed primer-template junction, 5' ssDNA overhang 33 nt.

The source of these data is PMC10359615, “Mechanistic insight into AP-endonuclease 1 cleavage of abasic sites at stalled replication fork mimics”.

Sequence of RPA (RPA1/RPA2/RPA3 heterotrimer) (P27694 whole entry, chain 1 of 3): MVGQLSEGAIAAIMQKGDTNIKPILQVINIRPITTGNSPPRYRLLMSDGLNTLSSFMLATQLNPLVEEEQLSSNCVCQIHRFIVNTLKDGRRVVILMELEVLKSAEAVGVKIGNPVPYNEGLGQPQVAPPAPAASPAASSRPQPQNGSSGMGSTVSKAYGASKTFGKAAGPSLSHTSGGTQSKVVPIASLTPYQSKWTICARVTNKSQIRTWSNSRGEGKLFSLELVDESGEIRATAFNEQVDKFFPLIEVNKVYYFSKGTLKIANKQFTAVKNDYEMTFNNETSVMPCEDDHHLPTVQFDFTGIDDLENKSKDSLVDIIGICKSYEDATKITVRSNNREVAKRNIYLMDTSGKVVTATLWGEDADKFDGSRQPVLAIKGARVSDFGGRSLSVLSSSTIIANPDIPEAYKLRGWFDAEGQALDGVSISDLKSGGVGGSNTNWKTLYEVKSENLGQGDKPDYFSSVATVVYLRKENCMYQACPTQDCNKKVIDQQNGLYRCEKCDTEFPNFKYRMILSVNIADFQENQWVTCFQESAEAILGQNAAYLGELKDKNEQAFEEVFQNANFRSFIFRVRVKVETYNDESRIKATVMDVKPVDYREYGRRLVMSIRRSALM
Sequence of RPA (RPA1/RPA2/RPA3 heterotrimer) (P15927 whole entry, chain 2 of 3): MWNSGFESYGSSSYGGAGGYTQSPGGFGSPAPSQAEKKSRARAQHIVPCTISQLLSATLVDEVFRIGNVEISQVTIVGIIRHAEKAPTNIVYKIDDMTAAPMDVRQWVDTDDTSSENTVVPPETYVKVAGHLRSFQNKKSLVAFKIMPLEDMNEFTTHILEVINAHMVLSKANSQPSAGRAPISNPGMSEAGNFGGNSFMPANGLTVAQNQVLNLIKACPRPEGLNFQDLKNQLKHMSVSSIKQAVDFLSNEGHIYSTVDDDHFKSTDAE
Sequence of RPA (RPA1/RPA2/RPA3 heterotrimer) (P35244 whole entry, chain 3 of 3): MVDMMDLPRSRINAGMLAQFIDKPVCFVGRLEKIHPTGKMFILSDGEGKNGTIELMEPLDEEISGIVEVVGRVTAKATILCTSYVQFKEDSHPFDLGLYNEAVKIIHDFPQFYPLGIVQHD
Sequence of APE1Dead (catalytically dead APE1) (P27695 whole entry E96Q/D210N): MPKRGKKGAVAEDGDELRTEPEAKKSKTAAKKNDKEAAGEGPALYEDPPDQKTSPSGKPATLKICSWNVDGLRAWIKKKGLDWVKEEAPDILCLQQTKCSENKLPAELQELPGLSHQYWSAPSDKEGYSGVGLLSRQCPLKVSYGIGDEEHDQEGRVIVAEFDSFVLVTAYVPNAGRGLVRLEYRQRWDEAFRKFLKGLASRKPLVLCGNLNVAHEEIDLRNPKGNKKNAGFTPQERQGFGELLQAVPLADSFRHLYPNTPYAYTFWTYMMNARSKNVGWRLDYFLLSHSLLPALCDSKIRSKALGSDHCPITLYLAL

TTTTTTTTTTTTTTTTTTTTTTTTTTTTTTTTTTT (ssDNA) [(dT)35]: the binding result in data set [1] is recorded as “binds”.

B1: Cy3-Rec-PTJ (mixed)
DNA 1: ACTCCTTCCGCACGTAATTTTTGACGCAC
DNA 2: TGACTCTTCTGCGTTCGCTGATGCGCCGACGGGTGCGTCAAAAATTACGTGCGGAAGGAGT
modifications: THF 7 nt from the junction
Consider B1, for which the binding result in data set [2] is given as “binds”.
